Data taken from a protein production outcome set (Wang et al. 2014).

Assay: label from the status in PepcDB records

| Sequence | protein production |
| --- | --- |
| MDPLALALLPGIGPKRLLEVLKAEDPLGFLRERFPEAWRHLPEAEAQAERERGRAEALGVRLLGLWEEGFPEGLRALPQPPTHLYLKGELPPEREAVALVGTRRASPWALAFARRLARELAEAGLWVVSGLARGIDREAHLGALEAGGRTLGVLGSALDRVYPPENRPLAQRMDLLSEFPFGTGPKPEFFPRRNRLIAGLCRAVVVVEAPLDSGALITARHALELGKEVLAVPGRPTDERSLGANRLIQDGAYPVLSAEDVLSYLGMSARPKPLPGLSPEEEALYALLQEKKEALPEALAMALGIPPERVLSLLTLLELKGLARALPGGRYGPG | failed |
| MGEYYHATVNGVVEYGAFVDLSEHVSGLIHESTYSGDPDLAVDDDVIVHLSAVRDNGDLSFEFVDPEEYRTEQRSLEHHHHHH | failed |
| MSVYHHILLAVDFSSEDSQVVQKVRNLASQIGARLSLIHVLDNIPMPDTPYGTAIPLDTETTYDAMLDVEKQKLSQIGNTLGIDPAHRWLVWGEPREEIIRIAEQENVDLIVVGSHGRHGLALLLGSTANSVLHYAKCDVLAVRLRDD | not failed |
| DYIEMKVPAQPEYVGIIRLTLSGVASRMGYTYDEIEDLKIAVSEACTNAVQHAYKEDKNGEVSIRFGVFEDRLEVIVADEGDSFDFDQKQQDLGPYTPSHTVDQLSEGGLGLYLMETLMDEVRVQNHSGVTVAMTKYLNGERVDHDTT | failed |
| MLKVAIAEDDFRVAQIQEEFLLKIKDVKVMGKALNAKETMELLQREEIDLLLLDNYLPDGIGTDLLPQIHAEFPNVDVIMVTAANENHMLEKAIRNGVSNYLIKPVTLEKFVRTIEDYKRKKQLLHNNNEVNQTLIDNFFGISQTQDIKNLPTGVDPLTLQKVKGIIKGFEEGITIEEMGEQMGASRTTARRYLEYLVATNECTVEYTYGIIGRPERKYRIGRGL | failed |
| SVPKRQRIRKLQIRNIPPHLQWEVLDSLLVQYGVVESCEQVNTDSETAVVNVTYSSKDQARQALDKLNGFQLENFTLKVAYIPDEMAAQ | not failed |
| MGQIPPQPVRRVLPLMVVPGNGQKWRNRTETEEAMGDTYRDPVDHLRTTRPLAGESLIDVVHWPGYLLIVAGVVGGVGALAAFGTGHHAEGMTFGVVAIVVTVVGLAWLAFEHRRIRKIADRWYTEHPEVRRQRLAG | failed |
| VIWNQLDARERLERQNDLFRRAQKLANIGAWEYEVSSGEVFWTRQVREIHGLPQGYEPTAEEAIAAYHPEDQPVIQGMIERAVEEEVPFDRELRLGGEALPVGHEQKEGRWVRARGTPQIEAGEVTSVRGTFQDITERKAREHVLENEREALRSMYRITADREAGFEEKARRLIDLGREHLGLPYGFLTRITDETQEIVFASGTHPLLQPGESCPLSRSYCRNTIQEERSLVVQDAVAEGWAGDPAHQTFELGAYVGAQIIVEGELYGTFCFAAEEPREQAFAGRERVFVELMAQWASYELGQRRAKAQLKRQNARLDSFAGLVAHDLRNPLNVATGRLRLAREER | failed |
| MKVKSISRFFSMKKVTLSFVTLFIGVGTIGSYNQYADASMKTQQTHVTKSSPTQKTTSNFKRSVKDTSVKSRATSIKRATSTKQAISPKTSSTKKTTIAKKSTTVNKTRTTTKTQPTIRKSSTTSTRSKTMPTSVKRTTSHKATTVSPTSKAKISTKTQQSTKSHTTSVKKNTTQLSKTKSPSTSTKSKTVQSSTTKAQPTLSTQVSTTTKAKQFSTPTTSKTDSSKSLVSLASTERKIDKYQSMTQLEKETTEGVDWRKDTKNTGNQVLIVAPHGGSIEQGTTELTKALADKGNYDYYSFEGIRPKNNSELHVTSTHYDDPTLNQMIKNRTATISIHGASGSEEIIYLGGPRSDLRNAIEKQLVARGFTVKVPPEYLGGQNNKNFINREDNNTGVQLELTTALRKAFFKNGDTSTKNRTNKENWTPTMEEFINALYEGINQTYSLEHHHHHH | failed |
| MRFDGAAGLAQRMPMLGRVVQAAPLALLLGCCLILTLPASGRTLFYILCSLSLLFLPLAMFQRLEAKPKALNLLLSFALLIFIGFRAAWLWYFPAPTDAGLFPVAFAYQLSNKIWLSALPLLLFPLWSPFRERLSPAGATLALVSASALLSMITLKAWYDAHGVRVGLGSLYATGAAYLLSAIHFFALLLFHPFRLKKWQWLGLCLLIALQFMSIVATGTRAALLVYLFVLGCALLWRFGLHQSWRTYAIAALLSVATLWLSWAAVGSRVKQAQADLIAYSQGNADTSLGIRFSLWDAGVHAVREQPWGQSIQARDVLFHQLVKDGALNKAALIMRDVHLHNEWLEILSLQGLPGALSWLIFLLGFGVYGWKRGGFFRRFALFYIGFWLVFGLSDVLLLSPQIAMFGAMFAALGLYLAPIFDARDERRL | failed |
